This passage reports Kd, Km and kcat results from publication doi:10.1101/2020.08.20.256677v1 (biorxiv, 2020).

The target of one data set is DnfA (Alcaligenes ammonioxydans, UniProt A0ABX8SXK4). Briefly: biochemical.
Substrate in the data set “purified protein”: NO
The experiment in a line: purified protein. As to conditions: 480 μM FAD, 10 mM NADH, 21% O2, 0.6 μM DnfA, 30 °C, 25-400 μM NH2OH.

The term Kd denotes the equilibrium constant for the complex coming apart. On DnfA, `NO` [hydroxylamine] came in with a Kd of 160 ± 20 nM.

B1: DnfA (Alcaligenes ammonioxydans) (protein)
chain: MTIKSYETDDAVRNMLQKLSVLWKNRAAVNQELPDYNNLAFDPNKADFSECLLPFREHQAWLEAPEELKSQCLSYAWGIYNLKTIYVECNVVTPSCEDIIKTPPPSANRNLLQDVMSQALLDEALHTRMSIMACNYIYSMRGLQPLDFTNFNLVQWRNDILSQCSSESERRLTRFAIACASETLITDYLKTMAEDKSIQTICHEVTRTHAMDEWSHSSVFSFVASDIIHGLSQKEREHMRAVILRTVEMFANNEMGAWEKVFSMVNFPNARDILHDTGDSNEIGVYTGSVESLIERIGLNSKSGQAQAQDEQQEALQ
For orientation: Km means the concentration of substrate that gives half-maximal velocity. The kcat is the number of substrate molecules converted per active site and unit of time at saturation. On to B1, for which, in “purified protein”, the Km worked out at 48.1 ± 6.0 µM and the kcat came to 18.6 ± 1.2 min⁻¹.
